# Experimental data from patent publication US20220227882A1 (TRUSTEES OF TUFTS COLLEGE, published 2022).
# T1: Full-length human ADAM8 on cells (HEK293-ADAM8 stable or transfected cells); also endogenous ADAM8 of breast … (human, UniProt P78325 17-824)
# T1 construct: On cells the proform, the active form and the remnant form can all be present; also called native ADAM8; HEK293-A8
# T1 sequence: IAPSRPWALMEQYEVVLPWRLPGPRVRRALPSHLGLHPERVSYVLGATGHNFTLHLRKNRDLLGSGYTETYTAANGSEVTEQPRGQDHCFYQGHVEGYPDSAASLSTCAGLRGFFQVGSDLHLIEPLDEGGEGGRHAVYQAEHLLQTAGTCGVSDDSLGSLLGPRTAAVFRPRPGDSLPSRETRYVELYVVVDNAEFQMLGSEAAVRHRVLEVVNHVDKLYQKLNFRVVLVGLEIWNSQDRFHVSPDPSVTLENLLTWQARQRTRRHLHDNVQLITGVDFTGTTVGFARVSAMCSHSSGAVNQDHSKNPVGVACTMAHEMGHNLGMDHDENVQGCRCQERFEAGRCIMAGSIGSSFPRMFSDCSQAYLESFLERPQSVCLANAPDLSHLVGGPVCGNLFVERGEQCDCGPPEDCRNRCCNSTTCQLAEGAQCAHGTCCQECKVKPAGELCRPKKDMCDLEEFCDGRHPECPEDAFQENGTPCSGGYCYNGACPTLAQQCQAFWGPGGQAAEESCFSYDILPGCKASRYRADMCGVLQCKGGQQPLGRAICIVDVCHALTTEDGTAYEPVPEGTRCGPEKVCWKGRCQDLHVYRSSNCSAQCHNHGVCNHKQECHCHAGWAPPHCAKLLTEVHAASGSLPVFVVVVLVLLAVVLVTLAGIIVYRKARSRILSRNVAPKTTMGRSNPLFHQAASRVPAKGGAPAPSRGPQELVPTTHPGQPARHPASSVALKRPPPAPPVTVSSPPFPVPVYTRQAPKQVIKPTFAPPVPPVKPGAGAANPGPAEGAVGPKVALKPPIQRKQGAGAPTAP
# T2: Recombinant human ADAM15 (Sino Biological, 10517-H08H) (human, UniProt Q13444 18-696)
# T2 sequence (looked up): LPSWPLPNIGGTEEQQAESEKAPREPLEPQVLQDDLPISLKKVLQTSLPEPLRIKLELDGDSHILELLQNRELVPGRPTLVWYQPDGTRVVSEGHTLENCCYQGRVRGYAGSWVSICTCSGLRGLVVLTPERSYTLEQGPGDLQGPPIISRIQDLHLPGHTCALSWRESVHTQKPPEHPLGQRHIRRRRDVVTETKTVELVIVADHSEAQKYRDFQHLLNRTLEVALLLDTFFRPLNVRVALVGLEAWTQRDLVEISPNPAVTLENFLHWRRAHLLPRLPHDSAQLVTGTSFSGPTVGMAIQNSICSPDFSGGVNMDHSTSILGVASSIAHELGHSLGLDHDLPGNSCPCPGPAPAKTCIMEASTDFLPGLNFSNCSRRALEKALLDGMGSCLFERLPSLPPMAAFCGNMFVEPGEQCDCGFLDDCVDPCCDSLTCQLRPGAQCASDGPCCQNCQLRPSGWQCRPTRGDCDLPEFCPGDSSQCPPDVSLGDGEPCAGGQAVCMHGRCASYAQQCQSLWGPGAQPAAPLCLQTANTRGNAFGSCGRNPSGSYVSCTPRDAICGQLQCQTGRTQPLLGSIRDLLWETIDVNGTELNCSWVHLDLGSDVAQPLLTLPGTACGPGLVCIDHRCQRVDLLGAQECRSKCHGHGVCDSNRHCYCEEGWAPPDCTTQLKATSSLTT
# T3: Recombinant human ADAM8 (rHuADAM8) ectodomain protein (aa 17-497), ACRO Biosystems AD8-H5223 (human, UniProt P78325 17-497)
# T3 construct: Bought protein made in HEK293 cells; The protein clips off its own prodomain (aa 17-191); also called rhADAM8; immunogen
# T3 sequence: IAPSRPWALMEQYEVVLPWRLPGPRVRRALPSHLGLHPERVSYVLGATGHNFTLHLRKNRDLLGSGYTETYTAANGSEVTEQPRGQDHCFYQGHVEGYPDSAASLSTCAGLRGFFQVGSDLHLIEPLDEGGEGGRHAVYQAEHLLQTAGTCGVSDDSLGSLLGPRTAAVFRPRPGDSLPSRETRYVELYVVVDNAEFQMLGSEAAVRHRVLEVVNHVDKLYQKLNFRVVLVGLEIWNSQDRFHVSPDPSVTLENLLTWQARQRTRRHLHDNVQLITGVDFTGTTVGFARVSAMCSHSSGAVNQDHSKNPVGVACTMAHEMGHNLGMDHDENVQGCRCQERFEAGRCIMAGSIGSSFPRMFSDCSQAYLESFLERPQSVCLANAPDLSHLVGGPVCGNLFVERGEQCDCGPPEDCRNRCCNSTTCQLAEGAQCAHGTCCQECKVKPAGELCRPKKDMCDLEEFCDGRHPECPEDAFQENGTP
# Key:
# [1] = biological target: T1, Full-length human ADAM8 on cells …; assay: FACS, HEK293-ADAM8 cells, antibody 0.1 µg/ml
# [2] = biological target: T1, Full-length human ADAM8 on cells …; assay: FACS, HEK293-ADAM8 cells, antibody 1 µg/ml
# [3] = biological target: T2, Recombinant human ADAM15 (Sino …); assay: ELISA, coated recombinant ADAM15
# [4] = biological target: T3, Recombinant human ADAM8 (rHuADAM8) …; assay: Biacore SPR, ADP captured by anti-mouse Fc, rHuADAM8 as analyte
# Procedure: For Biacore assays, each ADP was used as the ligand in a multiple cycle kinetics method performed on a Biacore™ T200 surface plasmon resonance system (GE Healthcare Life Sciences) machine. ADP proteins were captured using anti-mouse Fc IgG attached to a dextran matrix, and rHuADAM8 (Acro Biosystems, AD8-H5223) added as the analyte at concentrations ranging from 3.75 nM to 200 nM. HBS-EP+ (10 mM HEPES, 0.15 M NaCl, 3 mM EDTA, 0.05% Surfactant P20) running buffer was passed at a flow rate of 30 μl/min and antigen injected at 30 μl/min. The association and dissociation phases were carried out for 180 s and 600 s, respectively. Surface regeneration was performed for 30 s at 30 μl/min of Glycine pH 1.5. Values for association rate constant (kₐ), dissociation rate constant (kd) and equilibrium dissociation constant (KD) were calculated through the Biacore™ T200 Software.
Binder,MFI [1],MFI [2],OD 450nm [3],binding result [3],koff [4],kon [4]
"ADP13 (antibody, IgG1, V domains shown, also called mADP13; mouse ADP13) VH: EVQLQQSGPEMVKPGTSVKISCKASGYTFTDYYINWVKQSHGKSLEWIGDISPNIGGATYNPKFKGKAILTVDKSARTAYMELRSLTSEDSAVYCCTRGGSSYPYFYAMDYWGQGTSVTVSS VL: DIVMSQSPSSLAVSVGEKVTMSCKSSQSLLYSSNQKKYLAWYQQKPGQSPKLLIYWASTRESGVPDRFTGSGSGTDFTLTISSVKAEDLAVYYCQQFYSYPYTFGGGTKLEINR",7.1 MFI,21.1 MFI,0.09 OD450nm,no binding (tested: 1 µg/ml),4.6e-05 s⁻¹,35400 M⁻¹ s⁻¹
"ADP3 (antibody, IgG1, V domains shown) VH: EVKLEESGGGLVQPGGSMKLSCAASGFTFSDAWMDWVRQSPEKGLEWVAEIRGKVNNLATYYVESVKGRFTISRDDSKSSVYLQMNSLRAEDTGIYYCLGRYDATYAMDYWGQGTSVTVSS VL: DVVMTQTPLSLPVSLGDQASISCRSSQSLVHSDGNTYLHWYLQKPGQSPKLLIYKLSNRFSGVPDRFSGSGSGTDFTLKISRVEAEDLGVYFCSQSTHVPWTFGGGTKLEIK",51.8 MFI,96.5 MFI,0.17 OD450nm,no binding (tested: 1 µg/ml),0.000634 s⁻¹,34700 M⁻¹ s⁻¹
"ADP2 (antibody, V domains shown, also called mADP2; mouse ADP2) VH: EVKLVESGGGLVQPGGSLSLSCAASGFSFPDYYMSWVRQPPGKALEWLGFIRDSANGYTTEYIASVKGRFTFSRDNSQSILYLQMNALRAEDSATYYCARYSRYYGMDYWGQGTSVTVSS VL: SIVMTQTPKILLVSAGDRVTITCKASQTVNYDVAWYQQKPGQSPKPVIYFASNRYTGVPDRFTGSGFGTDFTFTISTVQAEDLAVYFCQQDYSAPWTFGGGTKLEIK",58.4 MFI,156 MFI,0.16 OD450nm,–,0.000299 s⁻¹,89500 M⁻¹ s⁻¹
